Results taken from PMC8326573.

Biological target: C. trachomatis PmpD fragment D^269–918, His-tagged (C. trachomatis serovar E) (UniProt O84818)
Assay: native gel or EMSA; Blue Native-PAGE (Native PAGE Novex 3–12% Bis-Tris), 1 μg of each renatured His-tagged Pmp fragment alone; Coomassie staining and anti-His immunoblot

C. trachomatis PmpD fragment D^269–918, His-tagged (from UniProt O84818 269-918) (domain or fragment)
stoichiometry N: 2
